According to patent US20190241648A1 (STATEN BIOTECHNOLOGY B V, published 2019):
Ends that are not written are not given here.

Tests used:
Assay in all cases: peptide microarray
ApoC3 peptide … P69A = target: T1, ApoC3 peptide … P69A (human, not fully specified (bridges); also: cyclic constrained)
T1 peptide: DKFSEFWDLDAEV
Description: (§1) F64 was completely variable.
(§2) Pre: staining of one of the ApoC3 peptide microarrays was done with the secondary antibody goat anti-human IgG (Fe) DyLight680 (1:5000) and control antibody mouse monoclonal anti-HA (12CA5) DyLight800 (1:2000) to investigate background interactions of the secondary antibody with the antigen-derived peptides that could interfere with the main assays. Subsequent incubation of other ApoC3 peptide microarrays with antibody samples was followed by staining with secondary and control antibodies as well as read-out at scanning intensities of 7/7 (red/green). The additional HA peptides framing the peptide arrays were stained as internal quality control to confirm the assay quality and the peptide microarray integrity.

ApoC3 peptide … W65C = ApoC3 peptide … W65C (human, cyclic constrained)
Description: as §1, §2

ApoC3 peptide … E70C = ApoC3 peptide … E70C (human, cyclic constrained)
Description: as §1, §2

ApoC3 peptide … V71C = ApoC3 peptide … V71C (human, cyclic constrained)
Description: as §1, §2

ApoC3 peptide … V71E = ApoC3 peptide … V71E (human, cyclic constrained)
Description: as §1, §2

ApoC3 peptide … D59F = target: T2, ApoC3 peptide … D59F (human, not fully specified (bridges); also: cyclic constrained)
T2 peptide: FKFSEFWDLDPEV
Description: as §1, §2

ApoC3 peptide … K60F = target: T3, ApoC3 peptide … K60F (human, not fully specified (bridges); also: cyclic constrained)
T3 peptide: DFFSEFWDLDPEV
Description: as §1, §2

ApoC3 peptide … W65F = ApoC3 peptide … W65F (human, cyclic constrained)
Description: as §1, §2

ApoC3 peptide … P69F = target: T4, ApoC3 peptide … P69F (human, not fully specified (bridges); also: cyclic constrained)
T4 peptide: DKFSEFWDLDFEV
Description: as §1, §2

ApoC3 peptide … L67G = target: T5, ApoC3 peptide … L67G (human, not fully specified (bridges); also: cyclic constrained)
T5 peptide: DKFSEFWDGDPEV
Description: as §1, §2

ApoC3 peptide … E63I = ApoC3 peptide … E63I (human, cyclic constrained)
Description: as §1, §2

ApoC3 peptide … W65I = target: T6, ApoC3 peptide … W65I (human, not fully specified (bridges); also: cyclic constrained, ring type and places not given here)
T6 peptide: DKFSEFIDLDPEV
Description: as §1, §2

ApoC3 peptide … S62L = ApoC3 peptide … S62L (human, cyclic constrained)
Description: as §1, §2

ApoC3 peptide … E70L = target: T7, ApoC3 peptide … E70L (human, not fully specified (bridges); also: cyclic constrained)
T7 peptide: DKFSEFWDLDPLV
Description: as §1, §2

ApoC3 peptide … E70M = target: T8, ApoC3 peptide … E70M (human, not fully specified (bridges); also: cyclic constrained)
T8 peptide: DKFSEFWDLDPMV
Description: as §1, §2

ApoC3 peptide … K60N = target: T9, ApoC3 peptide … K60N (human, not fully specified (bridges); also: cyclic constrained)
T9 peptide: DNFSEFWDLDPEV
Description: as §1, §2

ApoC3 peptide … D66P = target: T10, ApoC3 peptide … D66P (human, not fully specified (bridges); also: cyclic constrained)
T10 peptide: DKFSEFWPLDPEV
Description: as §1, §2

ApoC3 peptide … L67P = target: T11, ApoC3 peptide … L67P (human, not fully specified (bridges); also: cyclic constrained)
T11 peptide: DKFSEFWDPDPEV
Description: as §1, §2

ApoC3 peptide … D68P = target: T12, ApoC3 peptide … D68P (human, cyclic constrained)
T12 peptide: DKFSEFWDLPPEV
Description: as §1, §2

ApoC3 peptide … F61Q = target: T13, ApoC3 peptide … F61Q (human, not fully specified (bridges); also: cyclic constrained)
T13 peptide: DKQSEFWDLDPEV
Description: as §1, §2

ApoC3 peptide … W65Q = target: T14, ApoC3 peptide … W65Q (human, not fully specified (bridges); also: cyclic constrained, ring type and places not given here)
T14 peptide: DKFSEFQDLDPEV
Description: as §1, §2

ApoC3 peptide … L67Q = target: T15, ApoC3 peptide … L67Q (human, not fully specified (bridges); also: cyclic constrained)
T15 peptide: DKFSEFWDQDPEV
Description: as §1, §2

ApoC3 peptide … D68Q = target: T16, ApoC3 peptide … D68Q (human, cyclic constrained)
T16 peptide: DKFSEFWDLQPEV
Description: as §1, §2

ApoC3 peptide … D59R = target: T17, ApoC3 peptide … D59R (human, cyclic constrained)
T17 peptide: RKFSEFWDLDPEV
Description: as §1, §2

ApoC3 peptide … F61R = target: T18, ApoC3 peptide … F61R (human, not fully specified (bridges); also: cyclic constrained)
T18 peptide: DKRSEFWDLDPEV
Description: as §1, §2

ApoC3 peptide … D66R = target: T19, ApoC3 peptide … D66R (human, not fully specified (bridges); also: cyclic constrained)
T19 peptide: DKFSEFWRLDPEV
Description: as §1, §2

ApoC3 peptide … L67R = target: T20, ApoC3 peptide … L67R (human, not fully specified (bridges); also: cyclic constrained)
T20 peptide: DKFSEFWDRDPEV
Description: as §1, §2

ApoC3 peptide … L67S = target: T21, ApoC3 peptide … L67S (human, not fully specified (bridges); also: cyclic constrained)
T21 peptide: DKFSEFWDSDPEV
Description: as §1, §2

ApoC3 peptide … D66T = target: T22, ApoC3 peptide … D66T (human, not fully specified (bridges); also: cyclic constrained)
T22 peptide: DKFSEFWTLDPEV
Description: as §1, §2

ApoC3 peptide … D68T = ApoC3 peptide … D68T (human, cyclic constrained)
Description: as §1, §2

ApoC3 peptide … V71T = ApoC3 peptide … V71T (human, cyclic constrained)
Description: as §1, §2

ApoC3 peptide … W65V = target: T23, ApoC3 peptide … W65V (human, not fully specified (bridges); also: cyclic constrained, ring type and places not given here)
T23 peptide: DKFSEFVDLDPEV
Description: as §1, §2

ApoC3 peptide … D66V = target: T24, ApoC3 peptide … D66V (human, not fully specified (bridges); also: cyclic constrained)
T24 peptide: DKFSEFWVLDPEV
Description: as §1, §2

ApoC3 peptide … S62W = ApoC3 peptide … S62W (human, cyclic constrained)
Description: as §1, §2

ApoC3 peptide … D59Y = target: T25, ApoC3 peptide … D59Y (human, not fully specified (bridges); also: cyclic constrained)
T25 peptide: YKFSEFWDLDPEV
Description: as §1, §2

ApoC3 peptide … D66Y = target: T26, ApoC3 peptide … D66Y (human, not fully specified (bridges); also: cyclic constrained)
T26 peptide: DKFSEFWYLDPEV
Description: as §1, §2

- % of binding to wild-type peptide (ApoC3 peptide … P69A): 57.4%
- % of binding to wild-type peptide (ApoC3 peptide … W65C): 16%
- % of binding to wild-type peptide (ApoC3 peptide … E70C): 0%
- % of binding to wild-type peptide (ApoC3 peptide … V71C): 100%
- % of binding to wild-type peptide (ApoC3 peptide … V71E): 228%
- % of binding to wild-type peptide (ApoC3 peptide … D59F): 61.5%
- % of binding to wild-type peptide (ApoC3 peptide … K60F): 83.7%
- % of binding to wild-type peptide (ApoC3 peptide … W65F): 55.3%
- % of binding to wild-type peptide (ApoC3 peptide … P69F): 97.7%
- % of binding to wild-type peptide (ApoC3 peptide … L67G): 0.6%
- % of binding to wild-type peptide (ApoC3 peptide … E63I): 8.76%
- % of binding to wild-type peptide (ApoC3 peptide … W65I): 20.3%
- % of binding to wild-type peptide (ApoC3 peptide … S62L): 81%
- % of binding to wild-type peptide (ApoC3 peptide … E70L): 1.22%
- % of binding to wild-type peptide (ApoC3 peptide … E70M): 2.34%
- % of binding to wild-type peptide (ApoC3 peptide … K60N): 139%
- % of binding to wild-type peptide (ApoC3 peptide … D66P): 0%
- % of binding to wild-type peptide (ApoC3 peptide … L67P): 0%
- % of binding to wild-type peptide (ApoC3 peptide … D68P): 0%
- % of binding to wild-type peptide (ApoC3 peptide … F61Q): 64.5%
- % of binding to wild-type peptide (ApoC3 peptide … W65Q): 38.3%
- % of binding to wild-type peptide (ApoC3 peptide … L67Q): 25.7%
- % of binding to wild-type peptide (ApoC3 peptide … D68Q): 0%
- % of binding to wild-type peptide (ApoC3 peptide … D59R): 70.2%
- % of binding to wild-type peptide (ApoC3 peptide … F61R): 35.6%
- % of binding to wild-type peptide (ApoC3 peptide … D66R): 0%
- % of binding to wild-type peptide (ApoC3 peptide … L67R): 22.6%
- % of binding to wild-type peptide (ApoC3 peptide … L67S): 26.5%
- % of binding to wild-type peptide (ApoC3 peptide … D66T): 0%
- % of binding to wild-type peptide (ApoC3 peptide … D68T): 0.69%
- % of binding to wild-type peptide (ApoC3 peptide … V71T): 94.5%
- % of binding to wild-type peptide (ApoC3 peptide … W65V): 24%
- % of binding to wild-type peptide (ApoC3 peptide … D66V): 0%
- % of binding to wild-type peptide (ApoC3 peptide … S62W): 4.78%
- % of binding to wild-type peptide (ApoC3 peptide … D59Y): 70.2%
- % of binding to wild-type peptide (ApoC3 peptide … D66Y): 0%
B1: anti-ApoC3 antibody 6A6 (antibody, V domains shown)
VH: EVQLVESGGGLVQPGGSLRLSCAASGFTFSSYAGRWVRQVPGKGLEWVSSINAGGGSTSYADSVKGRFTISRDNAKNTLYLQMNSLKPEDTAKYYCTQNSYRYWGQGTRVAVSS
VL: DVVLTQTPGSLSVVPGESASISCKASQSLIHTDGKTYLYWLLQKPGQRPQLLIYQVSSHESGVPDRFTGSGSGTDFTLKISGVKAEDAGVYYCAQATYNPRTFGQGTKLEIK
notes: it was detected with goat anti-human IgG (Fc); also called mAb 6A6; llama antibody 6A6
